Assay results from paper PMC7759300 (The Journal of Cell Biology, 2020).

Experiments:
SAS-6 [1] = target: SAS-6 (UniProt Q6UVJ0); test: GFP-Trap co-IP, SAS-6 blot; settings: reference: wild type; sites S325
SAS-6 [2] = target: SAS-6 (UniProt Q6UVJ0); test: GFP-Trap co-IP, SAS-6 blot; settings: reference: wild type; sites S325; remark: listed apart in the source
Strep-NEDD1 = Strep-NEDD1 (human, UniProt Q8NHV4 1-660); test: pull-down
Strep-NEDD1, sequence (Q8NHV4 whole entry): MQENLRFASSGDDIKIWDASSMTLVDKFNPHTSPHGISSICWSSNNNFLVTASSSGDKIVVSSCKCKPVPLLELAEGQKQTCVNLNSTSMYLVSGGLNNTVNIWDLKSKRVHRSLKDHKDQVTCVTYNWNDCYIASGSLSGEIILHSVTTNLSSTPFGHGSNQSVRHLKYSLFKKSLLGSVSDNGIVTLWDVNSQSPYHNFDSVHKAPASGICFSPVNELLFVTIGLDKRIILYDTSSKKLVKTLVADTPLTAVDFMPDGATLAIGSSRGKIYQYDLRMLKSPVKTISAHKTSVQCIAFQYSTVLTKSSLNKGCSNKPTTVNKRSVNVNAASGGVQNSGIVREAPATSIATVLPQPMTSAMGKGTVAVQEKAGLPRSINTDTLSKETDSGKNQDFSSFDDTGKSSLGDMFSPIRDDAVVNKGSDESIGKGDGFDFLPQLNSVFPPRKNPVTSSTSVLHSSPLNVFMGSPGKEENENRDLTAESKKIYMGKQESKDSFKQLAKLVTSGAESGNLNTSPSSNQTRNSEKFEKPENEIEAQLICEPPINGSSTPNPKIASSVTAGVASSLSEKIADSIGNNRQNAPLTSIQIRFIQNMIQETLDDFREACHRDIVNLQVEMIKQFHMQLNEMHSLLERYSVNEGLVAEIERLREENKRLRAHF

binding against the reference (SAS-6 [1]) | binding against the reference (SAS-6 [2]) | binding result (Strep-NEDD1) | Molecule
weaker | weaker |  | NEDD1 (from UniProt Q8NHV4) S325A
 |  | binds | GFP-SAS-6-Strep (natural protein) MSQVLFHQLVPLQVKCKDCEERRVSIRMSIELQSVSNPVHRKDLVIRLTDDTDPFFLYNLVISEEDFQSLKFQQGLLVDFLAFPQKFIDLLQQCTQEHAKEIPRFLLQLVSPAAILDNSPAFLNVVETNPFKHLTHLSLKLLPGNDVEIKKFLAGCLKCSKEEKLSLMQSLDDATKQLDFTRKTLAEKKQELDKLRNEWASHTAALTNKHSQELTNEKEKALQAQVQYQQQHEQQKKDLEILHQQNIHQLQNRLSELEAANKDLTERKYKGDSTIRELKAKLSGVEEELQRTKQEVLSLRRENSTLDVECHEKEKHVNQLQTKVAVLEQEIKDKDQLVLRTKEAFDTIQEQKVVLEENGEKNQVQLGKLEATIKSLSAELLKANEIIKKLQGDLKTLMGKLKLKNTVTIQQEKLLAEKEEKLQKEQKELQDVGQSLRIKEQEVCKLQEQLEATVKKLEESKQLLKNNEKLITWLNKELNENQLVRKQDVLGPSTTPPAHSSSNTIRSGISPNLNVVDGRLTYPTCGIGYPVSSAFAFQNTFPHSISAKNTSHPGSGTKVQFNLQFTKPNASLGDVQSGATISMPCSTDKENGENVGLESKYLKKREDSIPLRGLSQNLFSNSDHQRDGTLGALHTSSKPTALPSASSAYFPGQLPNS
